Target: T1, SNF1 fused to the GAL4 DNA-binding domain (pAS2) (UniProt P04386 1-147; P06782 1-633, limits assumed)
T1 construct: Unrelated control protein in the yeast two-hybrid system
Test: yeast two-hybrid, β-galactosidase
Experimental: Cloning of STRAP. Northern blot and Southern blot analysis—Y190 containing pAS2-R4C was transformed with a pACT-mouse embryonic cDNA library, and transformants were subjected to selection for histidine prototrophy on SC-his, -trp, -leu plates containing 25 mM 3-aminotriazole (as described in Harper at al., *Cell* 75: 805–816 (1993) and Durfee et al., *Genes Dev.* 7:555–569 (1993)) and rare surviving colonies were then screened for β-galactosidase activity using a colony filter lift assay. Resulting clones, after second screening, were mated with Y187 containing the unrelated proteins p53, lamin, SNF1 and CDK2 fused to the GAL4 DNA-binding domain and tested for β-galactosidase activity. Positive clones were recovered from yeast and retransformed into Y190 with one of several unrelated molecules including lamin, SNF1, p53 or CDK2 in pAS2, for further testing of the specific interaction.
A color photograph was prepared showing STRAP or FKBP12.6 in pACT transformed into yeast strain Y190 containing R4C or one of several unrelated proteins including lamin. SNF1, p53 or CDK2 in pAS2. Transformants were tested for β-galactosidase activity by colony filter lift assay. A blue color indicated a positive interaction.

B1: STRAP (Serine-Threonine Kinase Receptors Associated Protein) in pACT (other)
chain: MAMRQTPLTCSGHTRPVVDLAFSGITPYGYFLISACKDGKPMLRQGDTGDWIGTFLGHKGAVWGATLNKDATKAATAAADFTAKVWDAVSGDELMTLAHKHIVKTVDFTQDSNYLLTGGQDKLLRIYDLNKPEAEPKEISGHTSGIKKALWCSDDKQILSADDKTVRLWDHATMTEVKSLNFNMSVSSMEYIPEGEILVITYGRSIAFHSAVSLEPIKSFEAPATINSASLHPEKEFLVAGGEDFKLYKYDYNSGEELESYKGHFGPIHCVRFSPDGELYASGSEDGTLRLWQTVVGKTYGLWKCVLPEEDSGELAKPKIGFPETAEEELAEEIASENSDSIYSSTPEVKA
notes: Yeast two-hybrid prey from a pACT mouse embryonic cDNA library (1.6 kb cDNA); also called STRAP clone; not shown: fusion partner encoded by the pACT library vector
binding result: no binding
